The results in this text go back to publication PMC9935396, “Structures of transcription preinitiation complex engaged with the +1 nucleosome” (Nature Structural & Molecular Biology, 2022).

For this experiment, the target named is T1, Tfb2 (p52), subunit of TFIIH (S. cerevisiae, UniProt Q02939 1-513).
T1 construct: Tfb2 (p52 in human), subunit of S. cerevisiae TFIIH; Stood in the assay as a subunit of TFIIH
T1 sequence: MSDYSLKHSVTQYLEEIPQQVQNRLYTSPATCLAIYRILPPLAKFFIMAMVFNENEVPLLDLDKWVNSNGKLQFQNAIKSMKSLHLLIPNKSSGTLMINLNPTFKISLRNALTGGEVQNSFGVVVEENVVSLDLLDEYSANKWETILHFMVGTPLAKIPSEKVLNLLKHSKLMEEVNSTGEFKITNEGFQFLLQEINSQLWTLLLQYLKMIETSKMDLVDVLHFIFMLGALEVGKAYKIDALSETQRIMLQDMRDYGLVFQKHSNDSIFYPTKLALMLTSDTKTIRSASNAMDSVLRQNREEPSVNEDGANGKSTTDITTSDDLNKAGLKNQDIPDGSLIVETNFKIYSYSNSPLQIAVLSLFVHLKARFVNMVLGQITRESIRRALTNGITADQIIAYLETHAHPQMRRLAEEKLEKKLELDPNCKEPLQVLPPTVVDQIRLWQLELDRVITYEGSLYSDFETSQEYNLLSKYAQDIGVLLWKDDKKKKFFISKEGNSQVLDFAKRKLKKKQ
Kind of experiment: cryo-EM structure; PIC-nucleosome complex A, without NTPs; PIC assembled in vitro on nucleosomal 209 bp His4 promoter/Widom-601 scaffold, GraFix (15-40% sucrose, 0-0.1% glutaraldehyde); overall 3.3 Å. The settings on record: both partners purified.

B1: Tfb5, subunit of TFIIH (natural protein, S. cerevisiae)
chain: MARARKGALVQCDPSIKALILQIDAKMSDIVLEELDDTHLLVNPSKVEFVKHELNRLLSKNIYNPMDEEENQ
notes: Tfb5, subunit of S. cerevisiae TFIIH; Stood in the assay as a subunit of TFIIH
With B1, the binding result was “binds”.
